Measured values reported in PMC12012885, “Cell-Free Reaction System for ATP Regeneration from D-Fructose” (ACS Synthetic Biology, 2025).
Numbering of substitutions follows the chain as printed. Names and notes keep the numbering of the source.

T1: Ps.LrhI (Stutzerimonas stutzeri, UniProt Q75WH8)
T1 construct: gene L-RhI; N-terminal hexa-His tag, synthetic gene in pET-28a, E. coli Rosetta(DE3) pLysS
T1 sequence (Q75WH8 1-430): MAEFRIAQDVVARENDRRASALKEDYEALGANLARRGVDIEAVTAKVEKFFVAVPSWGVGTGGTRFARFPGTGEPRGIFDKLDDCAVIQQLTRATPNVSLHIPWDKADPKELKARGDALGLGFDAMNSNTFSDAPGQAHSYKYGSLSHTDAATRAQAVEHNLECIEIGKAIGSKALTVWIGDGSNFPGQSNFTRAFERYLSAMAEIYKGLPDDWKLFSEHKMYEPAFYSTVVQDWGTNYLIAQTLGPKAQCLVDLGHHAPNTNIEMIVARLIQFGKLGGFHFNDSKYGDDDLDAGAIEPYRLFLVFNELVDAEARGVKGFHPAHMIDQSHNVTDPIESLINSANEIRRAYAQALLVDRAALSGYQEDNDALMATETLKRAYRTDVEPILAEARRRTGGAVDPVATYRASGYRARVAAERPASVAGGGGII

B1: Bad.F6Pkt (Bifidobacterium adolescentis ATCC 15703) (protein)
chain: MTSPVIGTPWKKLNAPVSEEAIEGVDKYWRAANYLSIGQIYLRSNPLMKEPFTREDVKHRLVGHWGTTPGLNFLIGHINRLIADHQQNTVIIMGPGHGGPAGTAQSYLDGTYTEYFPNITKDEAGLQKFFRQFSYPGGIPSHYAPETPGSIHEGGELGYALSHAYGAVMNNPSLFVPAIVGDGEAETGPLATGWQSNKLINPRTDGIVLPILHLNGYKIANPTILSRISDEELHEFFHGMGYEPYEFVAGFDNEDHLSIHRRFAELFETVFDEICDIKAAAQTDDMTRPFYPMIIFRTPKGWTCPKFIDGKKTEGSWRSHQVPLASARDTEAHFEVLKNWLESYKPEELFDENGAVKPEVTAFMPTGELRIGENPNANGGRIREELKLPKLEDYEVKEVAEYGHGWGQLEATRRLGVYTRDIIKNNPDSFRIFGPDETASNRLQAAYDVTNKQWDAGYLSAQVDEHMAVTGQVTEQLSEHQMEGFLEGYLLTGRHGIWSSYESFVHVIDSMLNQHAKWLEATVREIPWRKPISSMNLLVSSHVWRQDHNGFSHQDPGVTSVLLNKCFNNDHVIGIYFPVDSNMLLAVAEKCYKSTNKINAIIAGKQPAATWLTLDEARAELEKGAAEWKWASNVKSNDEAQIVLAATGDVPTQEIMAAADKLDAMGIKFKVVNVVDLVKLQSAKENNEALSDEEFAELFTEDKPVLFAYHSYARDVRGLIYDRPNHDNFNVHGYEEQGSTTTPYDMVRVNNIDRYELQAEALRMIDADKYADKINELEAFRQEAFQFAVDNGYDHPDYTDWVYSGVNTNKQGAISATAATAGDNE
notes: homodimer
B2: Bad.F6Pkt (Bifidobacterium adolescentis ATCC 15703; H548N) (protein)
chain: B1 chain with H548N
notes: homodimer

What was measured:
Asp52 = Asp52 (UniProt position 70, TDGSTDYGILQ); details: cited from earlier work
Ps.LrhI = target: T1, Ps.LrhI; test: coupled assay with D-erythrulose reductase, NADH at […] nm; format: biochemical; details: 10 mM D-erythrose, 4 mM MgCl2, pH 7.0, 37 °C
purified protein = substrate: O=C(CO)[C@H](O)CO; test: purified protein; format: biochemical, Bifidobacterium adolescentis; details: pH 6.5, 37 °C, 50 mM inorganic phosphate, 0.8 mM TPP, 3.8 mM MgCl2

Molecule | Km (purified protein) [mM] | further results
Hen egg white lysozyme (lysozyme C) (Gallus gallus) | – | pKa (Asp52): 3.33
OC1OC[C@@H](O)[C@H]1O (stereo partly drawn) [D-erythrose] | – | coupled assay with D-erythrulose reductase, NADH at 340 nm (Ps.LrhI): We characterized the D-erythrose activity of the enzyme and its stability under synthesis-like conditions
B1 | 36.2 ± 3.2 | –
B2 | 48.7 ± 0.4 | –
